Laboratory results taken from patent US6132976.
Blank lines part the entries; values can stand above or below the molecule they belong to. Non-standard residues stand in square brackets, D forms with d. No end group written: not given here. Hyp = O=C(O)[C@@H]1C[C@@H](O)CN1

How the values were obtained:
[1] = biological target: heat denatured type II collagen (HDC)
[2] = biological target: native helical type II collagen
[3] = biological target: monoclonal antibody COL2-3/4m; assay: inhibition ELISA with COL2-3/4m, HDC on the plate; sample incubated in Tris/CaCl2 without collagenase

Molecule: chromatographically purified collagenase form III from Clostridium histolyticum (enzyme)
[α1(II)-CB11B] by immunoassay (µg/ml) after treatment [1]: 0.84 µg/mL

[CB11B] BY INHIBITION ASSAY (µg/ml) of NC + 500 µg/ml CHYMOTRYPSIN [2]: 0 µg/mL
Molecule: α-chymotrypsin (enzyme)

[α1(II)-CB11B] by immunoassay [3]: 4.44 µg/mL
Molecule: CGKVGPSGA[Hyp]GEDGR[Hyp]GP[Hyp]GPQY [synthetic peptide CB11B]
